In article PMC9142583, “Structural basis for broad anti-phage immunity by DISARM” (Nature Communications, 2022):

Assays:
DrmA;DrmB [1] = target: T1, DrmA;DrmB (Serratia sp. SCBI;Serratia sp. SCBI, UniProt A0A979HMQ0;A0A979HMQ1 1-1325;1-619, |); assay: EMSA; 1 µM protein; EMSA: 150 mM NaCl, 25 mM HEPES pH 7.4, 30 min room temperature, 5 nM DNA; 1.5% agarose, 1x TBE; settings: protein: recombinant;recombinant, tags: none stated;tagged (Ni-NTA purification), copies: 1;1, label: 5'-Cy5 on strand 1
[2] = target: T2, DrmA(∆loop) / DrmA(∆TL);DrmB (Serratia sp. SCBI;Serratia sp. SCBI, UniProt A0A979HMQ0;A0A979HMQ1 1-1325;1-619, del181-233|); assay: as above; settings: protein: recombinant;recombinant, tags: none stated;tagged (Ni-NTA purification), copies: 1;1, label: 5'-Cy5 on strand 1
DrmA;DrmB [3] = target: T1, DrmA;DrmB; assay: EMSA; binding at 1 µM protein or higher; smeared (dissociation); EMSA: 150 mM NaCl, 25 mM HEPES pH 7.4, 30 min room temperature, 5 nM DNA; 1.5% agarose, 1x TBE; settings: protein: recombinant;recombinant; tags: none stated;tagged (Ni-NTA purification); copies: 1;1; label: 5'-Cy5; single strand
[4] = target: T2, DrmA(∆loop) / DrmA(∆TL);DrmB; assay: EMSA; no dissociation smear; second super-shift at 1 µM or higher; EMSA: 150 mM NaCl, 25 mM HEPES pH 7.4, 30 min room temperature, 5 nM DNA; 1.5% agarose, 1x TBE; settings: protein: recombinant;recombinant; tags: none stated;tagged (Ni-NTA purification); copies: 1;1; label: 5'-Cy5; single strand
DrmA;DrmB [5] = target: T1, DrmA;DrmB; assay: cryo-EM; 1 mM ADP; EMSA: 150 mM NaCl, 25 mM HEPES pH 7.4, 30 min room temperature, 5 nM DNA; 1.5% agarose, 1x TBE; settings: protein: recombinant;recombinant; tags: none stated;tagged (Ni-NTA purification); copies: 1;1; label: none; hairpin; 19-bp stem, 5-nt loop, 5' tail 7 nt, 3' tail 21 nt (Methods: 6 and 20)

B1: 3'ovh DNA (75-nt + 5' block) (mixed)
DNA 1: ATTTTGACAGCCCACATGGCTTGATGAGTGGCGCACTCGCCAGCCTGAGCATGGCGAAAACTCCTCCAGTCTGCT
DNA 2: GCCATGTGGGCTGTCAAAAT
binding result (DrmA;DrmB [1]; 3' overhang 55 nt): no binding
binding result ([2]; 3' overhang 55 nt): binds

B2: 5'ovh DNA (75-nt + 3' block) (mixed)
DNA 1: B1 DNA 1
DNA 2: AGCAGACTGGAGGAGTTTTC
binding result (DrmA;DrmB [1]; 5' overhang 55 nt): binds
binding result ([2]; 5' overhang 55 nt): binds

B3: 75-nt Cy5 ssDNA (ssDNA)
DNA: B1 DNA 1
binding result (DrmA;DrmB [3]): binds
binding result [4]: binds

B4: 75-bp dsDNA (dsDNA)
DNA 1: B1 DNA 1
DNA 2: AGCAGACTGGAGGAGTTTTCGCCATGCTCAGGCTGGCGAGTGCGCCACTCATCAAGCCATGTGGGCTGTCAAAAT
binding result (DrmA;DrmB [1]; blunt): no binding
binding result ([2]; blunt): binds

B5: DNA stem loop (forked hairpin) (structured_DNA)
DNA: TTTTTTTCATCGATGAGCACTGCTATTCCCTAGCAGTGCTCATCGATGATTTTCATCGATGAGCGGTTTT
modifications: none (unmethylated)
binding result (DrmA;DrmB [5]): binds
